Experimental data from patent publication US11492376B2, “Toxoplasma gondii GRA8-derived recombinant peptides and composition for preventing or treating cancer comprising the same” (Industry—University Cooperation Foundation Hanyang …, priority 2019, dated 2022).

What was measured:
HCT116 cells [1] = assay: MTT assay of cell viability, HCT116 cells; assay type: cell-based, human
Description: FIGS. 1A, 1B and 1C: confirms that rGRA8 treatment increases HCT116 cell death by mitochondria pathways [(A and B). Various cancer cells were incubated with WT rGRA8 (20 μg/ml) and its mutants for indicated times and then cell viability was measured by MTT analysis (upper) and αATP5A1, αSIRT3 or αActin immunoblotting (lower) was performed. […] The cells were incubated with WT rGRA8 for indicated times and subjected to IP with αLys-AC or αHis and IB with αATP5A1, αATP5C1, αSIRT3, αPGC-1, αPKCα or αActin. Data represents five independent experiments with similar results. Significant differences were determined by comparison with rVector treatment (** P<0.01; *** P<0.001)].
(§1) FIGS. 4A, 4B, 4C, 4D and 4E show HCT116 cell death by rATRAM-GRA8-M/AS-induced mitochondrial activation [(A and B) HCT116 cells were incubated with WT rGRA8 or rATRAM-GRA8-M/AS and its mutants for indicated times, and then cell viability was measured with an MTT assay. […] The cells were stimulated with rATRAM-GRA8-M/AS for 1 day and subjected to enzymatic activity of OXPHOS V, and (C) MitoTracker fluorescence signals were assessed by flow cytometry. (D) A bar graph indicates a mitochondrial mass (MFI), and (E) the mtDNA content of BMDM was measured by quantitative real-time PCR. The mtDNA content was normalized by nuclear DNA. Significant differences were determined by comparison with control treatment (** P<0.01; *** P<0.001). Data represents five independent experiments with similar results].
As described in Non-Patent Document 1, the cell viability for a non-treated group was measured by an MTT assay. After incubation for an indicated time, 5 mg/ml of a 3-(4,5-dimethyl thiazol-2-yl)-2,5-diphenyltetrazoliumbromide (MTT) solution was added to a medium, and the cells were further incubated for 4 hours. Subsequently, all of the medium was removed, the same volume of a dimethyl sulfoxide (DMSO) solution was added for 15 minutes to dissolve formazan. Using a UV/VIS spectrophotometer, each well of a plate was measured at 540 nm to measure relative cell viability.

HCT116 cells [2] = assay: MitoTracker flow cytometry of mitochondrial mass in HCT116 cells; assay type: cell-based, human; details: 1 day, via SIRT3 and PKCα
Description: as §1

[3] = Pharmacokinetics and drug distribution in HCT116 tumor-bearing mice (His immunoblotting of organs); assay type: in vivo, BALB/c mouse
Description: The […] were administered into the mouse by intraperitoneal injection once (left) or twice (right), and then the mouse was sacrificed on day 5. His expression was evaluated by immunoblotting (IB) in various organs from a mouse. The whole cell lysate was used for IB with anti-actin. Data represents four independent experiments with similar results. (B) The schematic diagram of an rGRA8 WT (upper)-treated xenograft model. […] The length and width of the tumors were measured using calipers, and a tumor volume was calculated every third day for 30 days. Individual tumor volumes from each mouse in each group were averaged and graphed over days after inoculation. Statistical significance was determined by two-way analysis of variance (ANOVA) with a Tukey's post-test; * P<0.05, *** P<0.001, compared with rVector. Each group included 10 mice. Data represents two independent experiments with similar results.

ATP5A1, SIRT3 and ATP5C1 = assay: Target binding and OXPHOS profile in xenograft tumor lysates; assay type: in vivo, nude mouse; details: day 15
Description: The length and width of a tumor were measured using calipers every third day for 30 days. On day 15 after administration, the mice were euthanized, and the interaction with GRA8, acetylation levels of ATP5A1 or expression of OXPHOS was analyzed (A, lower). The representative images of tumors from mice treated with rATRAM-GRA8-M/AS or mutants on day 15 (right). […] Significant differences (* P<0.05; ** P<0.01; *** P<0.001) were determined by comparison with rVector. Each group included 10 mice. Data represents two independent experiments with similar results],
For immunoprecipitation, cells were obtained, and then lysed in an NP-40 buffer supplemented with a complete protease inhibitor cocktail (Roche). After pre-purification with A/G agarose beads at 4° C. for 1 hour, a whole cell lysate was used for immunoprecipitation with indicated antibodies. Generally, 1 to 4 μg of commercial antibodies were added to 1 ml of the cell lysate, and incubated at 4° C. for 8 to 12 hours. After the addition of the protein A/G agarose beads for 6 hours, the immunoprecipitate was washed with a lysis buffer several times and heated for 5 minutes to be eluted with an SDS loading buffer.
For immunoblotting, polypeptides were subjected to electrophoresis (PAGE) with an SDS-polyacrylamide gel, and then transferred to a PVDF membrane (Bio-Rad) for separation. Immunodetection was performed with a specific antibody. Antibody binding was visualized by chemiluminescence (ECL; Millipore) and detected by a Vilber chemiluminescence analyzer (Fusion SL 3; Vilber Lourmat).

[4] = Immunogenicity: specific IgG by ELISA in immunized mice; details: immunized BALB/C mice, OD 450 nm
Description: (§2) Immunoblotting was performed with anti-PKCα, anti-ATP5A1, anti-SIRT3 or anti-actin. […] (B) The schematic diagram of a xenograft model treated with rVector (upper). HCT116-expressing ATP5A1 WT and mutant cells were subcutaneously injected into the flank of nude mice. […] Each group included 10 mice. […] (C) Humoral immune responses in BALB/C mice. The mice were immunized via each route (intravenous injection or intraperitoneal injection) every third day, and subjected to blood collection on day 40. […] The values are expressed as mean±standard deviation for absorbance (OD) at 450 nm. Each group included five mice. (D) Cytokine response for rATRAM-GRA8-M/AS in tumor-bearing mice. As described in the method section, HCT116 cells were subcutaneously injected into the flank of a BALB/c mouse. A serum cytokine level was measured on day 30 after administration. Each group included 10 mice.
(§3) Since immunogenicity is closely related with safety and efficacy, it is one of the critical factors for development of therapeutic proteins. Therefore, by monitoring the production of antibodies against rATRAM-GRA8-M/AS in immunized mice, the immunogenicity of rATRAM-GRA8-M/AS was investigated. After three consecutive injections of rATRAM-GRA8-M/AS, a level of IgG antibody was analyzed using enzyme-linked immunosorbent assay (ELISA).

[5] = Serum cytokine response in tumor-bearing mice
Description: as §2, §3

[6] = tumor-bearing mice, intraperitoneal injection
[7] = BALB/c mice, versus negative control

B1: (GLAGLAGLLGLEGLLGLPLGLLEGLWLGLELEGN)2-GG-ATATTTTTTR-GG-YRFTVQTTQN (protein)
chain: GLAGLAGLLGLEGLLGLPLGLLEGLWLGLELEGNGLAGLAGLLGLEGLLGLPLGLLEGLWLGLELEGNGGATATTTTTTRGGYRFTVQTTQN
modifications: His tag; rATRAM-G8-M/AS
HCT116 cells [1]; HCT116 cells
  fold improvement of IC50 compared with rGRA8 (cell death of cancer cell line): 200 fold
HCT116 cells [1]; HCT116 cells, MTT (FIG. 4A)
  IC50 (HCT116 cell death): 0.1 µg/mL
HCT116 cells [1]; HCT116 cells, listed as rATRAM-G8-M/AS
  fold improvement of IC50 compared with rGRA8 (cell death of cancer cell line): approximately 200 fold
HCT116 cells [1]; dose response, MTT (FIG. 4A)
  cell death in HCT116 cells: induced cell death in HCT116 cells in a dose-dependent manner
HCT116 cells [2]
  mitochondrial mass: enhanced
[3]; immunoblotting, FIG. 5
  cancer cell targetability: excellent cancer cell targetability
[3]; [6]
  disappearance from tumor: gradually disappeared by day 3
  time the tumor location was maintained: up to 2 days
[3]; tumor-bearing mice, intraperitoneal injection, His immunoblotting
  location of protein among organs: located in tumor cells
ATP5A1, SIRT3 and ATP5C1
  ATP5A1 deacetylation level in tumor lysates: increased
  binding of rGRA8 to ATP5A1, SIRT3 and ATP5C1 in vivo: significantly increased
  mitochondrial protein biosynthesis level in tumor lysates: increased
[4]
  level of specific IgG antibody: negligible
[5]; [7]
  serum IL-1β level: almost similar to that of the negative control
  serum IL-6 level: almost similar to that of the negative control
  serum TNF-α level: almost similar to that of the negative control
[5]; tumor-bearing mice, serum, day 30
  production of inflammatory cytokines: negligible
